The record followed here is patent US6511832.

For data set [1], the system named is LEF-4 L105F L105F (Autographa californica nuclear polyhedrosis virus). Particulars: 5'-triphosphate; RNA triphosphatase at nonpermissive temperature (33 C); equal to wild type at 25 C.
The target of data set [2] is baculovirus RNA polymerase complex (LEF-8/LEF-9/LEF-4/p47) (Autographa californica nuclear polyhedrosis virus) (UniProt P41452+P41465+P41477+P34051). Particulars: 5'-triphosphate; RNA 5'-triphosphatase turnover, 0.3 mM MnCl2, 30 C.
In data set [3] the test system is LEF-4 (Autographa californica nuclear polyhedrosis virus). Conditions: 5'-triphosphate; RNA 5'-triphosphatase turnover, 0.3 mM MnCl2, 30 C.
Data set [4] has as its system LEF-4 R51A R51A (Autographa californica nuclear polyhedrosis virus). Conditions: 5'-triphosphate; RNA triphosphatase.
The subject of data set [5] is LEF-4 wild type (E. coli) (Autographa californica nuclear polyhedrosis virus). Particulars: 5'-triphosphate; RNA triphosphatase, 1 uM RNA.
The subject of data set [6] is LEF-4 E9/11A E9A,E11A (Autographa californica nuclear polyhedrosis virus). Particulars: 5'-triphosphate; RNA triphosphatase reduced 100-fold.

Sequence of UniProt P41452 (P41452 whole entry, chain 1 of 4): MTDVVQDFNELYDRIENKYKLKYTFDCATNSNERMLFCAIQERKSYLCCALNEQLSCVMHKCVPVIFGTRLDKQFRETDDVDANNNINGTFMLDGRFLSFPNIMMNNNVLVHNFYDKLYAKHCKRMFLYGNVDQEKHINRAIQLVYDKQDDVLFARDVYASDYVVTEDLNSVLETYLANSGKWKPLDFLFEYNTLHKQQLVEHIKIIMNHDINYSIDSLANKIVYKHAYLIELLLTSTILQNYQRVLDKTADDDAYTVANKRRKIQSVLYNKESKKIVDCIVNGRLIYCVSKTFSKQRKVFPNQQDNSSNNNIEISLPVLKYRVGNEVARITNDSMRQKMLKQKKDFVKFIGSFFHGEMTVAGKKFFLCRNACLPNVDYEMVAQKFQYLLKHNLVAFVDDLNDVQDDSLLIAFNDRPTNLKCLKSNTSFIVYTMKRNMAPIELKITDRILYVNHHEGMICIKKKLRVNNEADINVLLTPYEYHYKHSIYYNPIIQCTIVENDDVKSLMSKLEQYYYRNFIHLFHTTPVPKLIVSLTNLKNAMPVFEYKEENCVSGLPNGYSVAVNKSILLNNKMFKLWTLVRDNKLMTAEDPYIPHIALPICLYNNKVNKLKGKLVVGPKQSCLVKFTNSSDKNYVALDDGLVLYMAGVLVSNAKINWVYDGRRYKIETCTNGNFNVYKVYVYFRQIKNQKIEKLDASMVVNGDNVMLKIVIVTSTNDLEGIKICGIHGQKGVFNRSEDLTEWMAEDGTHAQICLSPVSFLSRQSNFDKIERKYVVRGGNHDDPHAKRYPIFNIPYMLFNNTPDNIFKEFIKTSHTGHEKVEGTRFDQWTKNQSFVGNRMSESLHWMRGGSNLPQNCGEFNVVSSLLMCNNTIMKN
Sequence of UniProt P41452 (P41465 whole entry, chain 2 of 4): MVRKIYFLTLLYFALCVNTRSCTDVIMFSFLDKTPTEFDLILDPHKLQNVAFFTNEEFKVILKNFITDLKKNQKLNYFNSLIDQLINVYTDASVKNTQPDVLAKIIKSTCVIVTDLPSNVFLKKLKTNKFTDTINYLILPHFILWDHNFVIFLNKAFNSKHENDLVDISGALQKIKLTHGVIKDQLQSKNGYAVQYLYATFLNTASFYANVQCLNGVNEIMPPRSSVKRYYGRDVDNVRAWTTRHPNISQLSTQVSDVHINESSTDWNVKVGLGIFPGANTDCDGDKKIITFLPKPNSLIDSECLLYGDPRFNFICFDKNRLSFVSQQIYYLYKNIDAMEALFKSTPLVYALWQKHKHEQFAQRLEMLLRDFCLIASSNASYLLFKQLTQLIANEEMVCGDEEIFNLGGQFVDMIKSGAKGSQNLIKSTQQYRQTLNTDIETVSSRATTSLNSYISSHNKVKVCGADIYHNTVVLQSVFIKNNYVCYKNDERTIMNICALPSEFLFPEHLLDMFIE
Sequence of UniProt P41452 (P41477 whole entry, chain 3 of 4): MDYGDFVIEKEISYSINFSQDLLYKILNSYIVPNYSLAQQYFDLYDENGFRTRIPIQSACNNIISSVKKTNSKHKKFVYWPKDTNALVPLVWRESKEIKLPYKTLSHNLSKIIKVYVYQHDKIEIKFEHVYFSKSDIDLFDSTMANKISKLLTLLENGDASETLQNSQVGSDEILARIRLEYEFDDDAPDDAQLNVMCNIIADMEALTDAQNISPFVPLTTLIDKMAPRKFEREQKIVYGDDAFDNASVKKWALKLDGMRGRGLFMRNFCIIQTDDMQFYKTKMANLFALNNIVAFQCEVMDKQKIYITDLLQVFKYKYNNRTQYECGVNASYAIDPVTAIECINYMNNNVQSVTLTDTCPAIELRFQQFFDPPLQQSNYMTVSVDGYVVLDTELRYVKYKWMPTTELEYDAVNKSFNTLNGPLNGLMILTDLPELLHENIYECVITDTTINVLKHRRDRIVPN
Sequence of UniProt P41452 (P34051 whole entry, chain 4 of 4): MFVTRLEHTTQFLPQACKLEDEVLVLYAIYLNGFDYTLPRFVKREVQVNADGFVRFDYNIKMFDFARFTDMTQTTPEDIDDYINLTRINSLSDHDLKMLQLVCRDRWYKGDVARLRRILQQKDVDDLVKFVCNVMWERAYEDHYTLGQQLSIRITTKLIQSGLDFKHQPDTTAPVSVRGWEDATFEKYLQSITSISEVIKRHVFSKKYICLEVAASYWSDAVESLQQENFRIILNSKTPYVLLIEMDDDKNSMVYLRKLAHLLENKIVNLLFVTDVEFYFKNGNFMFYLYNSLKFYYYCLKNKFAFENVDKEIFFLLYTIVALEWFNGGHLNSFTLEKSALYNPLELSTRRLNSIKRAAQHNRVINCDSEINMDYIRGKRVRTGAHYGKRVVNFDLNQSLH

For “gamma-32P 5'-triphosphate 150-nt T3 transcript of pBluescript KS”, in data set [1], the binding signal (% of wild type) is 74. Also, the activity in data set [2] worked out at 0.16 fmol/s/fmol; in data set [3] it was 0.31 fmol/s/fmol. In data set [4], this substance came in with an RNA triphosphatase activity (% of wild type) of 2.5. In data set [5], the activity (pmol Pi/pmol per 15 min) turned out to be 210. Also, in data set [6], the binding signal (fraction of wild type) worked out at 0.01.
